{
  "source": "the RNAGym collection of RNA variant scans (doi:10.1073/pnas.2313332121)",
  "parents": {"B1": {"name": "TPR 5TU (parent)", "chain": "GGAUCUUCUCGAUCUAACAAAAAAGACAAAUCUGCCACAAAGCUUGAGAGCAUCUUCGGAUGCAGAGGCGGCAGCCUUCGGUGGCGCGAUAGCGCCAACGUUCUCAACUAUGACACGCAAAACGCGUGCUCCGUUGAAUGGAGUUUAUCAUG"}},
  "note": "This sample holds only a part of the variants without activity.",
  "data": [
    {"variants_of": "B1", "test": "polymerase ribozyme fitness, log enrichment relative to wild type (log ratio); higher = more active; in vitro selection for triplet polymerase activity", "how_it_was_run": "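Fitness compares each genotype's enrichment to that of the wild type on a logarithmic scale, averaging replicates with inverse-variance weights. The logarithm is base 2. Enrichment came from Illumina sequencing of input and output libraries after one triplicate round of in vitro selection, which included frozen incubation at −7 °C, of PCR-built, transcribed mutant libraries of each subunit of a heterodimeric triplet polymerase ribozyme. Only genotypes with ≥10 input reads and ≥1 read per output were kept.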", "values": [
      {"variant": "GGAUCUUCUCGAUCAAACAUAAAAGACAAAUCUGCCACAAAGCUUGAGAGCAUCUUCGGAUGCAGAGGCGGCAGCCUUCGGUGGCGCGAUAGCGCCAACGUUCUCAACUAUGACACGCAAAACGCGUGCUCCGUUGAAUGGAGUUUAUCAUG", "note": "[U15A A20U]", "polymerase ribozyme fitness (log ratio)": -0.122},
      {"variant": "GGAUCUUCUCGAUUUAACAAAAAAGACAAAUCUGCCACAAAGCUUGAGAGCAUCUACGGAUGCAGAGGCGGCAACCUUCGGUGGAGAGAUAGCGCCAACGUUCUCAACUAUGACACGCAAAACGUGUGCUCCGUUGAAUGGACUUUAUCUUU", "note": "[C14U U56A G74A C85A C87A C125U G143C A150U G152U]", "polymerase ribozyme fitness (log ratio)": "≤ -4.2"},
      {"variant": "GGAUCUUCUCGAUCAAACAAAAAAGACAAAUCUGCCACAAAGCUUGAGAGCAUCUUCGGAUGCAGAGGCGGCAGCCUUCGGUUGCGCGAUAGCGCCAACGUUCUCAACUAUGACACGCAAAACGCGUGCUCCGUUGAAUGGAGUUUAUCAUG", "note": "[U15A G83U]", "polymerase ribozyme fitness (log ratio)": -0.19},
      {"variant": "GGAUCUUCUCGAUCCAGCAAAAAAGACAAAUCUGGCACAAAGCUUGAGAGCAUCUACGGAUGCAGAGGCGGCAGCCUUCGGUGGCGCGAUAGCGCCAACGUUCUCAACUAUGACACCCAAAACGCGUGCUCCGUUGAAUGGAGUUUAUCAUG", "note": "[U15C A17G C35G U56A G117C]", "polymerase ribozyme fitness (log ratio)": -4.19},
      {"variant": "GGAUCUUCUCGAUCAAUCAAAAAAGACAAAUCUGCCACAAAGCUUGAGAGCAUCUUGGGAUGCAGAGGCGGCAGCCUUCGGUGGCGCUAUCGCGCCAACGUUCUCAACUACGACACGCAAAACGCGUGAUCCGGUGAAUGGAGUUUACCAUG", "note": "[U15A A17U C57G G88U A91C U111C C129A U134G U148C]", "polymerase ribozyme fitness (log ratio)": "≤ -4.2"},
      {"variant": "GGAUCUUCUCGAUCAAACAAAAAAGACAAAUCUGCCAUAAAGCUUGAGAGCAUUUUCGGAUGCAGAGGCGGCAGCCUUCGGUGGCGCGAUAGCGGCAACGUUCUCAACUAUGACACGCAAAACGCGUGCUCCGUUGAAUGAAGUUUAUCAUG", "note": "[U15A C38U C54U C95G G141A]", "polymerase ribozyme fitness (log ratio)": -1.16},
      {"variant": "GGAUCUUCUCGAUUUAACAAAAAAGACAAAUCUGCCACAAAGCUUGAGAGCAACUACGGAUGCAGAGGCGGCAGCCUUCGGUGGCGCGAUAGCGCCAACGUUCUCAACUAUGACACGCAAAACGCGUGCUCCGUUGAAUGGAGUUUAUCAUG", "note": "[C14U U53A U56A]", "polymerase ribozyme fitness (log ratio)": -2.46},
      {"variant": "GGAUCUUCUCGAUUUAACAAAAAAGACAAAUCUGCCACAAAGCUUGAGAGCAUCUUCGGAUGCAGAGGCGGCAGCCUUCGGUGGCGCGAUAGCGCCAACGUUCUCAACUAUGACACGCAAAACGCGUGCUCCGUUGAAUGGAAUUUAUCAUG", "note": "[C14U G143A]", "polymerase ribozyme fitness (log ratio)": -1.26},
      {"variant": "GGAUCUUCUCGAUUUAACAAAAAAGACAAAUCUGCCACAAAGCUUGAGAGCAUCAUCGGAUGCAGAGGCGGCAGCCUUCGGUGGCGCGAUAGCGCCAACGUUCUCAACUAUGACACGCAAAACGCAUGCUCUGUUGAAUGGAGUUUAUCAUG", "note": "[C14U U55A G126A C132U]", "polymerase ribozyme fitness (log ratio)": -1.73},
      {"variant": "GGAUCUUCUCGAUCAAACAAGAAAGACAAAUCUGCCACAAAGCUUGAGGGCAUCUUCGGAUGCAGAGGCGGCAGCCUUCGGUGGCGCGAUAGCGCGAACGUUCUCAACUAUGACACGCAAAACGCGUGCUCCGUUGAAUGGAGUUUAUCAUG", "note": "[U15A A21G A49G C96G]", "polymerase ribozyme fitness (log ratio)": -1.26},
      {"variant": "GGAUCUUCUCGAUCAAACAAAAAAGACAAAUCUGCCACAAAGCUUGAGAGCAUCUUCGAUUGCAGAGGCGGCAGCCUUUGGUGGCGAGAUAGCGCCAACGUUCUCAACUAUGACACGCAAAACGCGUGCUCCGUUGAAUGGAGUUUAUCAUG", "note": "[U15A G59A A60U C79U C87A]", "polymerase ribozyme fitness (log ratio)": "≤ -4.2"},
      {"variant": "GGAUCUUCUCGAUCAAACAAAAAAGAGAAUUCUGCCACAAAGCUUGAGAGCAUCUUCGGAUGCAGAGACGGCAGCCUUCGGUGGCGCGUUAGCGGCAUCGUUCUCAACUAUGACACGCAAAACGCGUGCUCCGUUGAAUGGAGUUUAUCAUG", "note": "[U15A C27G A30U G68A A89U C95G A98U]", "polymerase ribozyme fitness (log ratio)": "≤ -4.2"},
      {"variant": "GGAUCUUCUCGAUCAAACAAAAAAGACAAAUCUGCCACAAAGCUUGAGAGCAUCUUCAGAUGCAGAGGCGGCAGCCUUCGGUGGCACGAUAGCGCCAACGUUCUCAACUAUGACACGCAAAACGCGUGCUCCGUUGAAUGGAGGUUAUCAUG", "note": "[U15A G58A G86A U144G]", "polymerase ribozyme fitness (log ratio)": 0.552},
      {"variant": "GGAUCUUCUCGAUUUAACAAAAAAGACAAAUCUGCCACAAAGCUUGAGAGCAUCUUCGGAUGCAGAGGCGGCAGCCUUCGGUGGCGCGAUAGCGCCAACGUUCUCAACUAUGACACGCAAAACGCGUGCUCCGUUGAAUGUAGUUUAUCAUG", "note": "[C14U G141U]", "polymerase ribozyme fitness (log ratio)": 0.0902},
      {"variant": "GGAUCUUCUCGAUCCAACAUAAAAGACAAAUCUGCCACAAAGCUUGAGAGCAUUUUCGGAUGCAGAGGCGGCAGCCUUCGGUGGCUCGAUAGCGCCAACGUUCUCAACUAUGACACGCAAAACGCGUGCUCCGUUGAAUGGAGUUUAUCAUG", "note": "[U15C A20U C54U G86U]", "polymerase ribozyme fitness (log ratio)": -1.77},
      {"variant": "GGAUCUUCUCGAUCAAACAAAAAAGACAAAUCUGCCACAAAGCUUGAGAGCAUCUUCGGAUGCAGAGGCGGCAGGCUUCGGUGGCGCGAUAGCGCCAACGUUCUCAAUUAUGACACGCAAAACGCGUGCUCCGUUGAAUGGAGUUUAUCAUG", "note": "[U15A C75G C108U]", "polymerase ribozyme fitness (log ratio)": -4.16},
      {"variant": "GGAUCUUCUCGAUCAAACAAAAAAGACACAUCUGACACAAAGCUUGAGAGCAUCUUCGAAUGCAGAGGCGGCAGCUUUCGGUGGCGCGAUAGCGCCAACGUUCUCAACUAUGACACGCAAAACGCGUGCUCCGUUGAAUGGACUUUAUCAUG", "note": "[U15A A29C C35A G59A C76U G143C]", "polymerase ribozyme fitness (log ratio)": "≤ -4.2"},
      {"variant": "GGAUCUUCUCGAUUUAACAAAAAAGACAAAUCUGCCACAAAGCUUGAGAGCAUCUUCGGAUGCAGAGGCGGCAGCCUUCGGUGGCGCGAUACCGCCAACGUUCUCAACUAUGACACGCAAAACGCGUGCUCCGUUAAAUGGAGUUUAUCAUG", "note": "[C14U G92C G136A]", "polymerase ribozyme fitness (log ratio)": -2.51},
      {"variant": "GGAUCUUCUCGAUUUAACAAAAAAGACAAAUCUGCCACAAAGCUUGAGAGCAUCAUCGGAUGCAGAGGCGGCAGCCUUCGGUGGCGCGAUAGCGCCAACGUUCUCAACUAUGACACGCAAAACGCGUGCUCCGUUGAAUGGAGUUUAUCAUG", "note": "[C14U U55A]", "polymerase ribozyme fitness (log ratio)": -1.33}
    ]}
  ]
}
